From the supplement of paper PMC7877785 come the findings set out here.

This data set can be described thus: self-splicing fitness, log relative to wild type (ln ratio); higher = more splicing; Tetrahymena group I intron in knt gene, E. coli kanamycin selection, DiMSum; sequences stand for … in CUCUCU…GGAGGGAAAAGUUAUCAGGCAUGCACCUGGUAGCUAGUCUUUAAACCAAUAGAUUGCAUCGGUUUAAAAGGCAAGACCGUCAAAUUGCGGGAAAGGGGUCAACAGCCGUUCAGUACCAAGUCUCAGGGGAAACUUUGAGAUGGCCUUGCAAAGGGUAUGGUAAUAAGCUGACGGACAUGGUCCUAACCACGCAGCCAAGUCCUAAGUCAACAGAUCUUCUGUUGAUAUGGAUGCAGUUCACAGACUAAAUGUCGGUCGGGGAAGAUGUAUUCUUCUCAUAAGAUAUAGUCGGACCUCUCCUUAAUGGGAGCUAGCGGAUGAAGUGAUGCAACACUGGAGCCGCUGGGAACUAAUUUGUAUGCGAAAGUAUAUUGAUUAGUUUUGGAGUACUCGUGGUCG
The gist of the method:
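The eight P1ex-region nucleotides of an intron in the knt kanamycin-resistance gene on pET-22b(+) were all randomised and the library put into E. coli BL21(DE3). Six replicate transformations were grown overnight at 37°C or 30°C on LB agar with or without 25 μg/mL kanamycin, together with 100 μg/mL carbenicillin, 50 μM IPTG and 0.2% rhamnose. Colonies were pooled and amplicon-sequenced on an Illumina HiSeq 2500. Fitness from DiMSum is the error-weighted combination of wild-type-normalised replicate fold changes, kanamycin over none.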

± gives the uncertainty stated by the source.

With UGCAAGCAAUAUUACGCUAG, the “self-splicing fitness (ln)” value is, setting by setting: (30 °C) -2.55 ± 0.27; (37 °C) -2.42 ± 0.33.
CAAGAGCAAUAUUACGUGCC: the “self-splicing fitness (ln)” value runs as follows: (30 °C) -3.59 ± 0.32; (37 °C) -3.51 ± 0.39.
Regarding CAGAAGCAAUAUUACGAAAU, the “self-splicing fitness (ln)” value runs as follows: (30 °C) -3.92 ± 0.42; (37 °C) -1.33 ± 0.38.
As to GGAUAGCAAUAUUACGAGAC, the “self-splicing fitness (ln)” value reads like this: (30 °C) -2.63 ± 0.25; (37 °C) -2.63 ± 0.48.
GAGGAGCAAUAUUACGACGC: the “self-splicing fitness (ln)” value was -0.403 ± 0.15 (30 °C) and 0.209 ± 0.14 (37 °C).
For the sequence CUAAAGCAAUAUUACGUGAU, the “self-splicing fitness (ln)” value was -1.35 ± 0.07 (30 °C) and -1.14 ± 0.11 (37 °C).
Regarding UCUUAGCAAUAUUACGUUUC, the “self-splicing fitness (ln)” value is, setting by setting: (30 °C) -3.68 ± 0.24; (37 °C) -2.8 ± 0.29.
The like results for GAGCAGCAAUAUUACGCUCG were, in that order, -2.11 ± 0.33 and -0.285 ± 0.22.
As for CAUAAGCAAUAUUACGAGAA, the “self-splicing fitness (ln)” value (37 °C) was -2.27 ± 0.3.
Turning to CGCCAGCAAUAUUACGUAAG, the “self-splicing fitness (ln)” value is, setting by setting: (30 °C) -0.207 ± 0.063; (37 °C) 0.217 ± 0.074.
In the case of AGACAGCAAUAUUACGUCAA, the “self-splicing fitness (ln)” value runs as follows: (30 °C) -1.68 ± 0.1; (37 °C) -1.35 ± 0.09.
Turning to CUACAGCAAUAUUACGGAUA, the “self-splicing fitness (ln)” value runs as follows: (30 °C) -3.45 ± 0.14; (37 °C) -3.2 ± 0.16.
With CUGAAGCAAUAUUACGGUAG, the “self-splicing fitness (ln)” value was -0.283 ± 0.054 (30 °C) and -0.509 ± 0.061 (37 °C).
For the sequence GUACAGCAAUAUUACGGCCA, the “self-splicing fitness (ln)” value was -0.539 ± 0.17 (30 °C) and -1.13 ± 0.17 (37 °C).
The matching figures for GGUCAGCAAUAUUACGGGGA: -1.25 ± 0.17 and -1.87 ± 0.2.
On to UACCAGCAAUAUUACGGAAU, for which the “self-splicing fitness (ln)” value (30 °C) is -2.32 ± 0.093 and the “self-splicing fitness (ln)” value (37 °C) is -1.5 ± 0.1.
Consider CUGUAGCAAUAUUACGUACU, for which the “self-splicing fitness (ln)” value is -2.61 ± 0.11 (30 °C) and -1.3 ± 0.13 (37 °C).
The matching figures for CAUCAGCAAUAUUACGCUAA: -2.1 ± 0.17 and -1.69 ± 0.16.
For GAUUAGCAAUAUUACGGAUU, the “self-splicing fitness (ln)” value (30 °C) was -3.17 ± 0.21 and the “self-splicing fitness (ln)” value (37 °C) was -2.13 ± 0.23.
For CGCGAGCAAUAUUACGGUAC, the “self-splicing fitness (ln)” value was -3.55 ± 0.22 (30 °C) and -3.97 ± 0.42 (37 °C).
AUCAAGCAAUAUUACGGAAG: the “self-splicing fitness (ln)” value was -2.78 ± 0.11 (30 °C) and -2.01 ± 0.12 (37 °C).
With CGCGAGCAAUAUUACGUGGU, the “self-splicing fitness (ln)” value is -3.27 ± 0.15 (30 °C) and -2.64 ± 0.21 (37 °C).
Turning to AUCUAGCAAUAUUACGGCGU, the “self-splicing fitness (ln)” value runs as follows: (30 °C) -0.0812 ± 0.084; (37 °C) 0.429 ± 0.1.
As for CUCGAGCAAUAUUACGAAAG, the “self-splicing fitness (ln)” value by setting is: (30 °C) -2.85 ± 0.14; (37 °C) -1.58 ± 0.15.
On to CUAUAGCAAUAUUACGGGAA, for which the “self-splicing fitness (ln)” value was -2.55 ± 0.32 (30 °C) and -2.26 ± 0.31 (37 °C).
On to AAACAGCAAUAUUACGUGGG, for which the “self-splicing fitness (ln)” value (30 °C) was -3.64 ± 0.13 and the “self-splicing fitness (ln)” value (37 °C) is -2.71 ± 0.11.
As to CAUGAGCAAUAUUACGUGUU, the “self-splicing fitness (ln)” value was -3.85 ± 0.16 (30 °C) and -2.31 ± 0.15 (37 °C).
On to AAUCAGCAAUAUUACGCGUC, for which the “self-splicing fitness (ln)” value runs as follows: (30 °C) -1.14 ± 0.071; (37 °C) 0.513 ± 0.088.
On to GAACAGCAAUAUUACGUCGC, for which the “self-splicing fitness (ln)” value is -1.61 ± 0.11 (30 °C) and -0.68 ± 0.12 (37 °C).
On to GGUGAGCAAUAUUACGGUAU, for which the “self-splicing fitness (ln)” value (30 °C) was -3.49 ± 0.23 and the “self-splicing fitness (ln)” value (37 °C) was -3 ± 0.4.
As to UCGCAGCAAUAUUACGAGUC, for the setting “37 °C”, the “self-splicing fitness (ln)” value is -2.6 ± 0.38.
In the case of CCCGAGCAAUAUUACGGCGU, the “self-splicing fitness (ln)” value (30 °C) is -2.83 ± 0.13 and the “self-splicing fitness (ln)” value (37 °C) was -1.71 ± 0.13.
The like results for UGUGAGCAAUAUUACGUUGA were, in that order, -2.82 ± 0.14 and -2.11 ± 0.15.
The like results for GGACAGCAAUAUUACGGUGG were, in that order, -1.71 ± 0.11 and -1.53 ± 0.14.
Consider ACUGAGCAAUAUUACGAAUG, for which the “self-splicing fitness (ln)” value is, setting by setting: (30 °C) -3.69 ± 0.4; (37 °C) -1.89 ± 0.22.
With ACGAAGCAAUAUUACGGGCG, the “self-splicing fitness (ln)” value is -1.15 ± 0.072 (30 °C) and -0.126 ± 0.1 (37 °C).
The matching figures for GGCUAGCAAUAUUACGGUUA: 0.156 ± 0.084 and 0.606 ± 0.089.
Take AGGCAGCAAUAUUACGGGUC: the “self-splicing fitness (ln)” value was -2.67 ± 0.17 (30 °C) and -3.01 ± 0.22 (37 °C).
In the case of GAAAAGCAAUAUUACGAUGA, the “self-splicing fitness (ln)” value reads like this: (30 °C) -0.7 ± 0.1; (37 °C) -0.295 ± 0.11.
In the case of ACUAAGCAAUAUUACGAGAU, the “self-splicing fitness (ln)” value (30 °C) was -3 ± 0.15 and the “self-splicing fitness (ln)” value (37 °C) is -2.45 ± 0.2.
Consider CAGAAGCAAUAUUACGAUUG, for which the “self-splicing fitness (ln)” value is, setting by setting: (30 °C) -1.92 ± 0.11; (37 °C) -1.47 ± 0.12.
Turning to CCGCAGCAAUAUUACGAUUG, the “self-splicing fitness (ln)” value is, setting by setting: (30 °C) -0.997 ± 0.085; (37 °C) -0.816 ± 0.09.
For UCUCAGCAAUAUUACGAACA, the “self-splicing fitness (ln)” value is -1.41 ± 0.12 (30 °C) and -1.01 ± 0.13 (37 °C).
As to AAUAAGCAAUAUUACGCAGG, the “self-splicing fitness (ln)” value reads like this: (30 °C) -1.85 ± 0.14; (37 °C) -2.12 ± 0.15.
Take CGACAGCAAUAUUACGAGAA: the “self-splicing fitness (ln)” value (37 °C) was -2.41 ± 0.23.
AUGAAGCAAUAUUACGCAUU: the “self-splicing fitness (ln)” value runs as follows: (30 °C) -3.78 ± 0.43; (37 °C) -2.52 ± 0.31.
Regarding UGUAAGCAAUAUUACGGGAC, the “self-splicing fitness (ln)” value (30 °C) was -2.45 ± 0.25 and the “self-splicing fitness (ln)” value (37 °C) is -2.62 ± 0.44.
The like results for GACUAGCAAUAUUACGCUCU were, in that order, -1.87 ± 0.12 and -0.12 ± 0.14.
In the case of GAACAGCAAUAUUACGAGCU, the “self-splicing fitness (ln)” value (30 °C) is -1.99 ± 0.091 and the “self-splicing fitness (ln)” value (37 °C) is -1.18 ± 0.09.
ACUAAGCAAUAUUACGAGCG: the “self-splicing fitness (ln)” value reads like this: (30 °C) -0.928 ± 0.084; (37 °C) 0.115 ± 0.14.
In the case of AGGGAGCAAUAUUACGACUA, the “self-splicing fitness (ln)” value runs as follows: (30 °C) -2.2 ± 0.5; (37 °C) -1.98 ± 0.32.
As for UUCUAGCAAUAUUACGAUAU, the “self-splicing fitness (ln)” value reads like this: (30 °C) -2.27 ± 0.34; (37 °C) -1.77 ± 0.3.
The like results for UAAUAGCAAUAUUACGGGCA were, in that order, -0.899 ± 0.2 and -0.61 ± 0.19.
Turning to GAUGAGCAAUAUUACGUACA, the “self-splicing fitness (ln)” value was -2.09 ± 0.16 (30 °C) and -0.48 ± 0.13 (37 °C).
Regarding AACCAGCAAUAUUACGAUUG, the “self-splicing fitness (ln)” value was -3.19 ± 0.15 (30 °C) and -1.48 ± 0.11 (37 °C).
Consider AGCUAGCAAUAUUACGGUAU, for which the “self-splicing fitness (ln)” value runs as follows: (30 °C) -1.44 ± 0.08; (37 °C) -0.9 ± 0.1.
On to ACGAAGCAAUAUUACGUAGU, for which the “self-splicing fitness (ln)” value runs as follows: (30 °C) -3.12 ± 0.12; (37 °C) -2.13 ± 0.17.
Take GGAGAGCAAUAUUACGGCUU: the “self-splicing fitness (ln)” value is -0.815 ± 0.2 (30 °C) and -2.01 ± 0.3 (37 °C).
As for GAGUAGCAAUAUUACGCGGC, the “self-splicing fitness (ln)” value (37 °C) is -1.74 ± 0.45.
Regarding UCGUAGCAAUAUUACGCCAG, the “self-splicing fitness (ln)” value (30 °C) was -1.49 ± 0.3.
For AUGAAGCAAUAUUACGGCCU, the “self-splicing fitness (ln)” value came to 0.063 ± 0.094 (30 °C) and 0.456 ± 0.13 (37 °C).
